From publication PMC5799255, “Histone H5 is a potent Antimicrobial Agent and a template for novel Antimicrobial Peptides” (Scientific Reports, 2018)
Where two headings read alike, the source gives them in different places.

Tests used:
[1] = test system: Escherichia coli (O157:H7); experiment: Broth microdilution assay (MIC/MBC), planktonic bacteria; format: cell-based
Method: Antimicrobial activity of histone H5 against a variety of Gram-positive and Gram-negative planktonic bacteria was evaluated using a broth microdilution assay. The average minimum inhibitory concentration (MIC) and minimum bactericidal concentration (MBC) values (mean ± SD, n = 3) for six Gram-positive and four Gram-negative bacterial species are shown in Table 2. […] E. faecalis was the least susceptible to histone H5 inhibition, requiring over 32 µg/mL for complete bacterial growth inhibition which was the highest histone H5 concentration tested.
(§1) The bacterial strains tested in this study were Gram-positive bacteria (Bacillus cereus (ATCC 11778), methicillin-sensitive Staphylococcus aureus (ATCC 6538), methicillin-resistant Staphylococcus aureus (ATCC 29247), Listeria monocytogenes (ATCC 19112), Enterococcus faecalis (clinical isolate) and vancomycin-resistant Enterococcus (ATCC 51299)) and Gram-negative bacteria Escherichia coli K12 (ATCC 29425), Escherichia coli (O157:H7), Pseudomonas aeruginosa (ATCC 15442) and Salmonella typhimurium (ATCC 1535)). Bacterial colonies from glycerol stocks were plated on LB agar plates (BHI agar plates for L. monocytogenes) and incubated overnight at 37 °C. Single colonies from these plates were grown in 3 mL of LB broth (BHI broth for L. monocytogenes) overnight at 37 °C and shaken at 250 rpm. […] The bacterial suspension was pelleted at 3,000 × g, 4 °C for 10 minutes and washed with PBS (twice), and then adjusted to 10^5–10^6 CFUs/mL in PBS.
(§2) Supplementary Information
(§3) Broth microdilution assay
The protocol for this step of the project was based on established methods22. […] The microplate was incubated in the EON microplate reader overnight at 206 oscillations/min and at 37°C. […]
This assay is based on a previously described protocol22. The potential for hemolytic activity was assessed using rat red blood cells (RBCs) which were obtained from the University of Ottawa Animal Care Facility and in accordance with the University of Ottawa Animal Care

[2] = test system: Listeria monocytogenes (ATCC 19112); settings: for MIC: broth microdilution
Method: (§4) Antimicrobial activity of histone H5 against a variety of Gram-positive and Gram-negative planktonic bacteria was evaluated using a broth microdilution assay.
(§5) The antimicrobial activity of these peptides against Gram-positive and Gram-negative planktonic bacteria was evaluated using broth microdilution assays.
as §1, §2, §3
(§6) The protocol for this step of the project was based on established methods22. Histone H5 or the peptides were dissolved in sterile water, pH 7.4, serially two-fold diluted and aliquoted in a 1:1 (v/v) ratio with bacteria. Kanamycin or ampicillin served as a positive control for inhibition, and sterile water (pH 7.4) as a negative control for inhibition. The tubes were then incubated for 3 hours at 37°C an d shaken at 200 rpm. Next, 100 µL of each tube and 100µL of LB broth (BHI broth for L. monocytogenes) was plated in wells of a 96-well microplate. The microplate was incubated in the EON microplate reader overnight at 206 oscillations/min and at 37°C. During this period, the EON microplate spectrophotometer and Gen5 data analysis software (BioTek, Winooski, VT, USA) were used to monitor the growth of bacteria by measuring the optical density at 600 nm every 30 minutes for 18 hours. The lowest protein concentration without visible bacterial growth was designated as the minimum inhibitory concentration (MIC). Bacteria (10 µL) from the wells at MIC, MIC x 2 and MIC x 3 concentrations of H5 were plated on LB agar (BHI agar for L. monocytogenes) and incubated at 37°C for 18 hours. The lowest concentration of histone H5 without a single colony was designated as the minimum bactericidal concentration (MBC).

[3] = test system: Pseudomonas aeruginosa (ATCC 15442)
Method: as §4, §5, §1, §2, §3, §6

[4] = Circular dichroism (CD) secondary structure analysis, CDSSTR deconvolution; format: physicochemical; settings: for α-helix: room temperature, average of two independent measurements
Method: The secondary structure of histone H5 and the three preparations of histone H5-derived peptide H5(61–90) was investigated in different environments: sterile H2O, pH 7.4 (aqueous environment) and 30 mM SDS (mimicking the negatively charged bacterial membrane environment), by circular dichroism (CD) spectroscopy. […] Deconvolution of the spectral data with the CDSSTR program estimated the secondary structural components (α-helix, β-sheet, turns, etc.) of each peptide (Table 8). […] However, the α-helical proportions in the presence of 30 mM SDS were 76.9%, 84.2%, 75.5% and 84.7% for histone H5, H5(61–90) V1, H5(61–90) V2 and H5(61–90) V3, respectively.
The protocol followed for circular dichroism spectrometry was based on previously described methods. Circular dichroism (CD) measurements were performed using a Jasco-715 Spectropolarimeter (Japan Spectroscopic Co., Tokyo), in which the wavelengths scanned were 185 to 260 nm, using a scan speed of 100 nm/min, a bandwidth and data pitch of 1.0 nm, with a quartz cell (0.1 cm path length). Histone H5 and histone H5-derived peptides were dissolved in sterile ddH2O, pH 7.4, or 30 mM SDS. The CD spectrum of sterile ddH2O (buffer of the samples) was used as the blank. Each CD spectrum represents the average of two independent measurements, each in quintuplicate. The CD data was converted to molar ellipticity [θ], which was calculated using the following equation:1 [θ]=CDinmdeg/(10×pathlengthincm×Cr) where Cr = number of residues x molar concentration (mol/L).
In order to estimate secondary structure content, averaged CD spectra for each peptide were analysed using the CDSSTR software. This program analyzes the molar ellipticity [θ] values at each wavelength and compares them with a library of known protein secondary structures (α-helix, β-sheet, turns, etc.) in order to estimate the percentages of the various secondary structural components of the tested peptide samples.

[5] = broth microdilution, 3 h at 37 °C, then OD600 growth 18 h in LB broth, mean ± SD, n = 3
[6] = plated on LB agar, 37 °C 18 h, lowest concentration without a single colony, mean ± SD, n = 3
[7] = value in the figure, representative of three independent trials, each in triplicate

B1: histone H5: erythrocyte-specific linker histone purified from chicken erythrocytes, 190 amino acids (protein, UniProt P02259 2-190, looked up)
Histone H5: TESLVLSPAPAKPKRVKASRRSASHPTYSEMIAAAIRAEKSRGGSSRQSIQKYIKSHYKVGHNADLQIKLSIRRLLAAGVLKQTKGVGASGSFRLAKSDKAKRSPGKKKKAVRRSTSPKKAARPRKARSPAKKPKATARKARKKSRASPKKAKKPKTVKAKSRKASKAKKVKRSKPRAKSGARKSPKKK
MIC [1, 5]: 4.9 ± 1.5 µg/mL | MBC [1, 6]: 4.9 ± 1.5 µg/mL | MIC [1, 7]: 6.7 µg/mL | MIC ([2]; MIC given in molar units): 0.2 ± 0 µM | MIC ([2]; 3 h at 37 °C, then OD600 growth 18 h in BHI broth, mean ± SD, n = 3): 4 ± 0 µg/mL | MBC ([2]; plated on BHI agar, 37 °C 18 h, lowest concentration without a single colony, mean ± SD, n = 3): 4.4 ± 0.8 µg/mL | MIC ([3]; broth microdilution, MIC given in molar units): 0.1 ± 0.1 µM | MIC [3, 5]: 2.9 ± 1 µg/mL | MBC [3, 6]: 2.9 ± 1 µg/mL | MIC [3, 7]: 4 µg/mL | Random Coil ([4]; 30 mM SDS, CD): 8.9% | Turns ([4]; 30 mM SDS, CD): 4.5% | β-sheet ([4]; 30 mM SDS, CD): 9.7% | α-helix ([4]; 30 mM SDS, CD 185-260 nm): 76.9% | Random Coil ([4]; sterile ddH2O pH 7.4, CD): 32.2% | Turns ([4]; sterile ddH2O pH 7.4, CD): 22.4% | β-sheet ([4]; sterile ddH2O pH 7.4, CD): 22.7% | α-helix ([4]; sterile ddH2O pH 7.4, CD 185-260 nm): 23.4%
